Laboratory results published in patent publication US20160017022A1.

Target: EGFP-MAL stably expressed on CHO cells
Assay: FACS, CHO cells stably expressing EGFP-MAL

## fluorescently labeled ETX (ETX^Alexa-647) (from UniProt Q02307 33-328) (ligand)
  double labeling of EGFP-MAL expressing cells: 100%
